± gives the standard deviation of the averaged measurements.
The sequences below were run on ATP (assay: switch fluorescence ratio, 500 uM ATP over buffer (Cy3 cluster intensity, sum of 5 cycles each) (fold (ratio)); higher = stronger signal-on switching upon ATP binding; sequences stand for … in TCGTCGGCAGCGTCAGATGTGTATAAGAGACAGTTTTTTTTTTTTTTTTTTTTTTTTT…TC). Details: aptamer strand: ATP DNA aptamer (quencher-CACCTGGGGGAGTATTGCGGAGGAAGG + anchor), 100 nM annealed; ATP concentration: 500 uM.
Method in brief: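 Switching-strand clusters labelled with Cy3 on a modified Illumina MiSeq flow-cell were annealed to 100 nM quencher-labelled ATP aptamer, imaged in selection buffer, and re-imaged after 15 min with 500 uM ATP at 22 °C. This was done over five cycles with NaOH stripping and re-annealing in between. The fluorescence ratio is summed target-cycle over summed buffer-cycle Cy3 intensity per cluster, averaged per switch-domain sequence, excluding clusters outside 100-1000 RFU.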
For TCGGGGCAG, the switch fluorescence ratio was 0.976 ± 0.033. In the case of TCGGGGCCAT, the switch fluorescence ratio is reported as 1.02 ± 0.062. With TCGGGGCGGA the switch fluorescence ratio was 0.994 ± 0.038. TCGGGGGCAC gave a switch fluorescence ratio of 1.45 ± 0.71. Sequence TCGGGGGGAT has a switch fluorescence ratio of 1.21 ± 0.36. Sequence TCGGGGGGTA has a switch fluorescence ratio of 0.985 ± 0.021. Work on TCGGGGTAAT yielded a switch fluorescence ratio of 1.03 ± 0.019. In the case of TCGGGGTCAG, the switch fluorescence ratio is reported as 0.999 ± 0.02. Sequence TCGGGTATTT has a switch fluorescence ratio of 0.998 ± 0.021. TCGGGTCCGT showed a switch fluorescence ratio of 0.982 ± 0.027. TCGGGTTCTC was tested, and the switch fluorescence ratio was 0.967 ± 0.0091. In the case of TCGGGTTCTT, the switch fluorescence ratio is reported as 1.02 ± 0.027. Work on TCGGGTTTTA yielded a switch fluorescence ratio of 1.03 ± 0.039. In the case of TCGGTAAATG, the switch fluorescence ratio is reported as 1.04 ± 0.018. Sequence TCGGTCAGTA has a switch fluorescence ratio of 1.002 ± 0.0036. With TCGGTCATGG the switch fluorescence ratio was 0.993 ± 0.023. For TCGGTGACAG, the switch fluorescence ratio was 1.01 ± 0.018. With TCGGTGCTGG the switch fluorescence ratio was 0.977 ± 0.018. TCGGTGGAGA was tested, and the switch fluorescence ratio was 1.01 ± 0.024. TCGGTGGAGC showed a switch fluorescence ratio of 1.02 ± 0.13. TCGGTGTCGG was tested, and the switch fluorescence ratio was 0.98 ± 0.037. With TCGGTGTTCA the switch fluorescence ratio was 1 ± 0.011. With TCGGTTAGAT the switch fluorescence ratio was 0.981 ± 0.057. Work on TCGGTTCTAC yielded a switch fluorescence ratio of 0.9985 ± 0.0099. TCGGTTGAAG was tested, and the switch fluorescence ratio was 0.988 ± 0.017. TCGGTTGTGA was tested, and the switch fluorescence ratio was 0.999 ± 0.011. Work on TCGGTTTTTA yielded a switch fluorescence ratio of 1 ± 0.043. TCGTAAAGAG showed a switch fluorescence ratio of 1.022 ± 0.0069. With TCGTAAAGGG the switch fluorescence ratio was 1.01 ± 0.022. For TCGTAAAGTT, the switch fluorescence ratio was 0.955 ± 0.02. TCGTAACAGG gave a switch fluorescence ratio of 1.01 ± 0.034. Work on TCGTAAGGAA yielded a switch fluorescence ratio of 1.01 ± 0.02. TCGTAATAGG was tested, and the switch fluorescence ratio was 1.118 ± 0.011. In the case of TCGTAATCGC, the switch fluorescence ratio is reported as 1.4113 ± 0.0014. In the case of TCGTAATGTG, the switch fluorescence ratio is reported as 1.03 ± 0.033. TCGTACTTTT showed a switch fluorescence ratio of 0.989 ± 0.05. In the case of TCGTAGCTGT, the switch fluorescence ratio is reported as 1.18 ± 0.052. TCGTAGGAGC showed a switch fluorescence ratio of 1.03 ± 0.02. TCGTAGGGTT gave a switch fluorescence ratio of 1.01 ± 0.04. TCGTAGGTGG showed a switch fluorescence ratio of 1.02 ± 0.063. TCGTATTTGG gave a switch fluorescence ratio of 0.993 ± 0.032. With TCGTCCTTTT the switch fluorescence ratio was 0.976 ± 0.03. In the case of TCGTCGTAGC, the switch fluorescence ratio is reported as 1.05 ± 0.072. TCGTCTGTGG was tested, and the switch fluorescence ratio was 0.974 ± 0.029. TCGTGAGGTG gave a switch fluorescence ratio of 1.02 ± 0.068. TCGTGAGTGG showed a switch fluorescence ratio of 0.975 ± 0.021. TCGTGCGGGT was tested, and the switch fluorescence ratio was 1.001 ± 0.0081. In the case of TCGTGCTTGG, the switch fluorescence ratio is reported as 1 ± 0.029. In the case of TCGTGGCGCT, the switch fluorescence ratio is reported as 0.995 ± 0.048. TCGTGGGACT showed a switch fluorescence ratio of 1.07 ± 0.12. Sequence TCGTGGGGGC has a switch fluorescence ratio of 1.07 ± 0.14. TCGTGGTGTT was tested, and the switch fluorescence ratio was 1.03 ± 0.021. TCGTGTGGAG gave a switch fluorescence ratio of 1.01 ± 0.033. In the case of TCGTGTTAGG, the switch fluorescence ratio is reported as 1.02 ± 0.022. Sequence TCGTTAAATT has a switch fluorescence ratio of 0.988 ± 0.035. Sequence TCGTTAGAAG has a switch fluorescence ratio of 0.9966 ± 0.0052. In the case of TCGTTAGAAT, the switch fluorescence ratio is reported as 0.948 ± 0.013. For TCGTTATATT, the switch fluorescence ratio was 0.98 ± 0.015. TCGTTCAGTA gave a switch fluorescence ratio of 0.958 ± 0.014. For TCGTTCGGCA, the switch fluorescence ratio was 1.06 ± 0.032. TCGTTCTTTT gave a switch fluorescence ratio of 0.966 ± 0.019. In the case of TCGTTGAATG, the switch fluorescence ratio is reported as 0.956 ± 0.014. TCGTTGGCAA showed a switch fluorescence ratio of 2.3 ± 0.23. For TCGTTGTGCT, the switch fluorescence ratio was 0.964 ± 0.027. Sequence TCGTTTTACT has a switch fluorescence ratio of 1.34 ± 0.44. Work on TCGTTTTGCG yielded a switch fluorescence ratio of 0.9977 ± 0.0086. With TCTAACCTGG the switch fluorescence ratio was 1.006 ± 0.0042. For TCTAAGGGA, the switch fluorescence ratio was 1.01 ± 0.018. TCTAATTACA showed a switch fluorescence ratio of 1.04 ± 0.073. TCTACGGGAT showed a switch fluorescence ratio of 2.54 ± 0.2. With TCTACTAT the switch fluorescence ratio was 1.06 ± 0.031. Sequence TCTACTTTAC has a switch fluorescence ratio of 1.39 ± 0.15. TCTAGAGGGT gave a switch fluorescence ratio of 1.01 ± 0.028. TCTAGCAGTT gave a switch fluorescence ratio of 1.048 ± 0.0014. In the case of TCTAGCCCTG, the switch fluorescence ratio is reported as 1.06 ± 0.073. TCTAGCCGCG showed a switch fluorescence ratio of 1.016 ± 0.0044. TCTAGGGCGC was tested, and the switch fluorescence ratio was 1.01 ± 0.053. TCTAGTTAAA gave a switch fluorescence ratio of 0.986 ± 0.0074. With TCTATAATCG the switch fluorescence ratio was 0.977 ± 0.034. TCTATACCAC was tested, and the switch fluorescence ratio was 1.06 ± 0.014. TCTATGCATG was tested, and the switch fluorescence ratio was 1.04 ± 0.029. TCTATGCTTC gave a switch fluorescence ratio of 1.9 ± 1.1. Work on TCTATGTTAT yielded a switch fluorescence ratio of 0.999 ± 0.027. For TCTATTATTG, the switch fluorescence ratio was 0.98 ± 0.011. TCTATTGGCT gave a switch fluorescence ratio of 1.016 ± 0.0049. With TCTATTGGGA the switch fluorescence ratio was 0.981 ± 0.028. Sequence TCTATTTGTG has a switch fluorescence ratio of 0.966 ± 0.02. TCTCAAGGCG was tested, and the switch fluorescence ratio was 1.03 ± 0.0089. Work on TCTCAAGTGC yielded a switch fluorescence ratio of 1.118 ± 0.0083. TCTCAGTGTT showed a switch fluorescence ratio of 1.028 ± 0.0064. For TCTCATAGTA, the switch fluorescence ratio was 0.997 ± 0.047. TCTCATCGGG gave a switch fluorescence ratio of 1.014 ± 0.0037. TCTCATTACG showed a switch fluorescence ratio of 1.012 ± 0.0094. TCTCCAGGGG showed a switch fluorescence ratio of 2.3 ± 2.1. Sequence TCTCCTGGGA has a switch fluorescence ratio of 1.03 ± 0.018. Work on TCTCGCCGGG yielded a switch fluorescence ratio of 1.02 ± 0.031. TCTCGGGGGG showed a switch fluorescence ratio of 1.02 ± 0.065. For TCTCGTACCT, the switch fluorescence ratio was 1.19 ± 0.12. Work on TCTCTTTCTG yielded a switch fluorescence ratio of 0.9729 ± 0.0073. TCTGAAAACT gave a switch fluorescence ratio of 1.06 ± 0.0013. Sequence TCTGAAATAA has a switch fluorescence ratio of 1.08 ± 0.048. TCTGAACAGG was tested, and the switch fluorescence ratio was 1.03 ± 0.014. Sequence TCTGAACGGG has a switch fluorescence ratio of 1.02 ± 0.011. For TCTGAGGTAT, the switch fluorescence ratio was 1.03 ± 0.034. Sequence TCTGAGGTGC has a switch fluorescence ratio of 1.06 ± 0.046. In the case of TCTGATGCGT, the switch fluorescence ratio is reported as 1.03 ± 0.0038. In the case of TCTGATTATA, the switch fluorescence ratio is reported as 0.987 ± 0.024. In the case of TCTGATTGTG, the switch fluorescence ratio is reported as 0.972 ± 0.047. TCTGCACATT showed a switch fluorescence ratio of 1.07 ± 0.025. Sequence TCTGCTTTTG has a switch fluorescence ratio of 1.05 ± 0.02. With TCTGGAAGGT the switch fluorescence ratio was 1.04 ± 0.053. In the case of TCTGGATAGG, the switch fluorescence ratio is reported as 0.9625 ± 0.0058. With TCTGGATATT the switch fluorescence ratio was 1.01 ± 0.025. TCTGGCAGAT showed a switch fluorescence ratio of 1.01 ± 0.028. TCTGGGAGGC was tested, and the switch fluorescence ratio was 1.01 ± 0.021. TCTGGGAGGT was tested, and the switch fluorescence ratio was 0.975 ± 0.02. TCTGGGGGAA was tested, and the switch fluorescence ratio was 1.06 ± 0.15. With TCTGGGTGGA the switch fluorescence ratio was 0.994 ± 0.015. For TCTGGTAATT, the switch fluorescence ratio was 1 ± 0.02. TCTGGTATGG was tested, and the switch fluorescence ratio was 0.994 ± 0.0034. Sequence TCTGGTCATG has a switch fluorescence ratio of 0.995 ± 0.014. For TCTGGTGAAA, the switch fluorescence ratio was 1.02 ± 0.054. TCTGGTGACG showed a switch fluorescence ratio of 1.04 ± 0.054. TCTGGTTGT gave a switch fluorescence ratio of 0.992 ± 0.028. TCTGGTTGTA was tested, and the switch fluorescence ratio was 0.995 ± 0.051. In the case of TCTGTAAGAA, the switch fluorescence ratio is reported as 1.03 ± 0.041. With TCTGTAAGGG the switch fluorescence ratio was 0.9783 ± 0.0076. TCTGTAAGGT was tested, and the switch fluorescence ratio was 0.986 ± 0.02. With TCTGTCTCTG the switch fluorescence ratio was 1.01 ± 0.014. In the case of TCTGTGGGGG, the switch fluorescence ratio is reported as 1.01 ± 0.016. TCTGTGGGTT was tested, and the switch fluorescence ratio was 0.973 ± 0.051. In the case of TCTGTGTTGG, the switch fluorescence ratio is reported as 0.98 ± 0.02. In the case of TCTGTTCATG, the switch fluorescence ratio is reported as 1.001 ± 0.0081. With TCTGTTGGAC the switch fluorescence ratio was 0.997 ± 0.024. Work on TCTTAACGGC yielded a switch fluorescence ratio of 1.04 ± 0.05. TCTTACGAAG gave a switch fluorescence ratio of 1.27 ± 0.27. With TCTTACGGCT the switch fluorescence ratio was 1.03 ± 0.033. For TCTTAGGCTG, the switch fluorescence ratio was 1.01 ± 0.018. With TCTTAGGTTG the switch fluorescence ratio was 1.028 ± 0.0062. In the case of TCTTAGTTCA, the switch fluorescence ratio is reported as 0.9825 ± 0.0062. In the case of TCTTATGTTA, the switch fluorescence ratio is reported as 0.989 ± 0.021. TCTTCTGGGA showed a switch fluorescence ratio of 1.026 ± 0.0038. TCTTGAGGGG showed a switch fluorescence ratio of 0.982 ± 0.034. With TCTTGATTGT the switch fluorescence ratio was 0.974 ± 0.017. TCTTGCTTC showed a switch fluorescence ratio of 1.0084 ± 0.00091. Sequence TCTTGGCACA has a switch fluorescence ratio of 1.036 ± 0.0061. Sequence TCTTGGGGCA has a switch fluorescence ratio of 1.01 ± 0.019. TCTTGGGTTT gave a switch fluorescence ratio of 0.992 ± 0.012. Work on TCTTGGTTGA yielded a switch fluorescence ratio of 0.968 ± 0.02. In the case of TCTTGTCGTT, the switch fluorescence ratio is reported as 1.019 ± 0.0077. Sequence TCTTGTGAGG has a switch fluorescence ratio of 1.04 ± 0.13. TCTTGTTTGA showed a switch fluorescence ratio of 1.008 ± 0.0059. TCTTGTTTGG was tested, and the switch fluorescence ratio was 0.994 ± 0.049.

From the supplement of paper PMC10126150
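Further: ATP exposure 15 min at 22 °C before imaging.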
